From US20210308260A1

Molecular target: OVA-specific T-cell antigen receptor of OT1 transgenic mice (mouse)
Experiment: flow cytometry, OVA tetramer staining of peripheral blood CD8+ T cells of OT1 mice

- proportion of CD8+ T cells specifically recognized by OVA (tetramer-positive): 95.3%
Substance: OVA tetramer (peptide-MHC)
